In paper PMC5514143, “A Drug Carrier for Sustained Zero-Order Release of Peptide Therapeutics” (Scientific Reports, 2017):

Assays:
[1] = Circular dichroism of PEG-sCT released from the film; type: physicochemical; conditions: CD 190-260 nm, room temperature, 0.1 cm path cell; release media
Method: UV-vis absorption spectra were recorded on a UV-1800 spectrophotometer (SHIMADZU, Japan). Fourier transform infrared (FTIR) spectra were measured on Bio-Rad FTS-6000 spectrometer. CD measurement was performed on a Biologic MOS-450 (Claix, France) at room temperature in a 0.1 cm path cell. The CD signals were recorded from 190 to 260 nm using a bandwidth of 4.0 nm and a scanning rate of 50 nm/min. SEM images were recorded on an FEI NanoSEM 430 Scanning Electron Microscope. Atomic force microscopy (AFM) images were acquired using a Benyuan CSPM5000s scanning probe microscope in tapping mode.

[2] = administered via injection; cited from earlier work
Source text: The key goal of a release system is to maintain the plasma drug concentration within the therapeutic window for a prolonged period of time. For zero-order release carriers, as the drug is released at constant rate, it will be possible to maintain the plasma drug concentration constant. This will avoid a plasma drug concentration which is too high to exert toxic effects, or too low to fail to exert therapeutic effects, and therefore lead to the best outcome. As expected, for rats with implanted PEG-sCT/TA films, the plasma concentration of PEG-sCT remains almost constant (Fig. 7A). When a 20 bi ...

For PEGylated salmon calcitonin [PEG-sCT], the “secondary structure of PEG-sCT released from the film (CD spectra vs native drug)” value [1] is given as “remains unchanged” and the “half-life of PEG-sCT” value [2] is given as ~ 83 min.
